Experimental data published in PMC3274541, “The Inherited Blindness Protein AIPL1 Regulates the Ubiquitin-Like FAT10 Pathway” (PLoS ONE, 2012).

T1: Myc-AIPL1 (aryl hydrocarbon receptor interacting protein-like 1), wild type (UniProt Q9NZN9 1-384)
T1 construct: also called pCMV-Tag3C-AIPL1; WT AIPL1; source: SK-N-SH, transfected, in lysate
T1 sequence (looked up): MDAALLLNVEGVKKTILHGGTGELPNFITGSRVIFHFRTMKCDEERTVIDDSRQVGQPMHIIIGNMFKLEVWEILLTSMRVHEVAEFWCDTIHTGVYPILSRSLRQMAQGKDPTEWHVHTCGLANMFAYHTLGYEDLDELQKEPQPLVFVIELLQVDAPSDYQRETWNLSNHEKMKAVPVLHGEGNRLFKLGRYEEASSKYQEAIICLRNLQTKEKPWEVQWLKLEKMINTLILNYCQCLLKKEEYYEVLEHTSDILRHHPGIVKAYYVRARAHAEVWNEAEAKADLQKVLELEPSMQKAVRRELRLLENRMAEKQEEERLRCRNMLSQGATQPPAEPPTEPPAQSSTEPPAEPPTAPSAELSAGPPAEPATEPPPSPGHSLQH

B1: HA-FAT10 (natural protein, UniProt O15205 1-165, looked up)
chain: MAPNASCLCVHVRSEEWDLMTFDANPYDSVKKIKEHVRSKTKVPVQDQVLLLGSKILKPRRSLSSYGIDKEKTIHLTLKVVKPSDEELPLFLVESGDEAKRHLLQVRRSSSVAQVKAMIETKTGIIPETQIVTCNGKRLEDGKMMADYGIRKGNLLFLACYCIGG
notes: ubiquitin-like modifier FAT10; also called free FAT10; monomeric FAT10; source: SK-N-SH, transfected, in lysate
B2: NUB1-FLAG (NEDD8 ultimate buster-1) (natural protein)
chain: not shown
notes: NEDD8 ultimate buster-1 (NUB1), the shorter splice variant that lacks 14 amino acids in the second UBA domain of NUB1L; also called NUB1-p3XFLAG-CMV; source: SK-N-SH, transfected, in lysate

Assays:
Assay in all cases: co-IP; SK-N-SH cells co-transfected; lysed in DM buffer (1% n-dodecyl-β-D-maltoside, 10 mM EDTA, protease inhibitors in PBS); 2 µl antibody 2 h at 4°C, Protein G Sepharose overnight at 4°C, 5 washes; western blot; with or without 50 µM MG132 for 4 h
Conditions in all cases: partners not purified
[1] = target: B2
[2] = target: T1, Myc-AIPL1 (aryl hydrocarbon receptor …)
[3] = target: B1

Binder	fold increase of the co-precipitate with proteasome inhibitor over untreated cells [1] [fold]	fold increase of the co-precipitate with proteasome inhibitor over untreated cells [2] [fold]	fold increase of the co-precipitate with MG132 over untreated cells [3] [fold]
B1	~2	~5	
B2			~5
